Measurements taken from patent US20220073618A1 (NANJING GENSCRIPT BIOTECH, published 2022).

What was measured:
[1] = biological target: T1, human PD-L1 on cell surface (human, UniProt Q9NZQ7 19-290); experiment: cell-based or functional assay
[2] = biological target: T2, human PD-L1 protein (human, UniProt Q9NZQ7 19-238, limits assumed); experiment: ELISA on human PD-L1 protein; untreated antibody (D0) and antibody after 7 days at 40 C (D7)
Experimental: (§1) The antibody samples were treated separately at 40° C., and then centrifuged to remove the pellet. Then the amount of remaining antibody was evaluated by ELISA. (test after treatment at 40° C. for 7 days (D7) and 14 days (D14) separately; for each test, the untreated sample (D0) stored at −80° C. is used as a control) (FIG. 3)

[3] = biological target: T2, human PD-L1 protein; experiment: ELISA on human PD-L1 protein; antibody after 14 days at 40 C (D14)
Experimental: as §1

[4] = biological target: T2, human PD-L1 protein; experiment: ELISA on the antigen (human PD-L1); antibody untreated (0), after oxidative stress (AAPH, 24 h) or deamidation stress (pH 9.0, 48 h)
[5] = biological target: T3, PD-L1-HIS recombinant protein (human, UniProt Q9NZQ7 19-238, limits assumed); experiment: SPR (Biacore 8K), antibody captured on chip, PD-L1-HIS analyte 2.5-80 nM, 1:1 binding model
T3 construct: not shown: His tag
T3 sequence (Q9NZQ7 19-238 limits assumed): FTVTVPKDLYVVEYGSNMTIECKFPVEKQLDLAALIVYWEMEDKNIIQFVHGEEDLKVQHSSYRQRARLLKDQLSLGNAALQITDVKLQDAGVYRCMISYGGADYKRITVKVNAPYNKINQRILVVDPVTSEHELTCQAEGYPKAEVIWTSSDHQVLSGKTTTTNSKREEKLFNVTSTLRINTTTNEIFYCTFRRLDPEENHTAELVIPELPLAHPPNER
Experimental: The chip surface was equilibrated with HBS-EP buffer at a flow rate of 10 μl/min for 5 min, and then a 1:1 mixture of “NHS+EDC” was injected at a flow rate of 10 μl/min for 420 sec to activate the chip. The capture antibody (goat anti-murine IgG) diluted in 10 mM sodium acetate buffer was injected for about 420 sec at a flow rate of 10 μl/min for coupling, and finally ethanolamine was injected for 420 sec at a flow rate of 10 μl/min to block the surface.
Three pre-cycles were performed with the HBS-EP buffer as a sample to balance the chip to stabilize the baseline. The antibody diluted in HBS-EP buffer was injected for 30 sec at a flow rate of 10 μl/min (where the antibody-antigen binding signal was controlled to about 100 RU by adjusting the capture time between 0-5 min), and then the chip was equilibrated with the buffer for 1 min. The low-concentration antigen 2.5 nM PD-L1-HIS was injected at a flow rate of 30 μl/min for 240/300 seconds, to allow the antigen to bind to the antibody, and then the buffer was injected at a flow rate of 30 μl/min for 720/600 seconds for dissociation. 50 mM HCl were injected three times each for 15 s at a flow rate of 100 μl/min for regeneration, to complete one cycle. The antigen concentration was changed (such as 5 nM PD-L1-HIS) to carry out the cycle for measurement at a next gradient concentration until all gradient concentrations (2.5 nM, 5 nM, 10 nM, 20 nM, 40 nM, 80 nM PD-L1-HIS) and the replicate (such as 10 nM PD-L1-HIS) were tested.
The experimental data was double subtracted (minus the background values of the control channel and zero concentration), and fitted to the “1:1 binding” model in the Biacore 8K evaluation software. Biacore 8K was used to determine the affinity of the antibody to the PD-L1-HIS recombinant protein.

[6] = biological target: T2, human PD-L1 protein; experiment: ELISA on human PD-L1 protein; antibody treated for 20 min (all overlapping curves, including the -80 C control)
Experimental: (§2) The antibody samples were treated for 20 min at various temperature gradients respectively, and then centrifuged to remove the pellet. Then the amount of remaining antibody was evaluated by ELISA. (The temperature gradient includes: room temperature, 30° C., 40° C., 50° C., 60° C., 70° C., […]) (FIG. 4)

[7] = biological target: T2, human PD-L1 protein; experiment: ELISA on human PD-L1 protein; antibody treated for 20 min at 70 C
Experimental: as §2

[8] = biological target: T4, biotin-labeled PD-L1-Fc (human, UniProt Q9NZQ7 19-238, limits assumed, biotin-labeled (sites not given)); experiment: ELISA: biotin-PD-L1-Fc binding to coated human PD-1 with titrated antibody; enhancement of PD-L1/PD-1 binding
T4 construct: not shown: Fc part
T4 sequence (Q9NZQ7 19-238 limits assumed): as above
Experimental: (§3) The ELISA plate (Nunc) was coated with 100 μl/well of 0.5 μg/ml recombinant human PD-1 protein in PBS at 4° C. overnight. The plate was washed with PBS-T (0.05% Tween), and blocked with 200 μl/well of PBST containing 1% BSA at 37° C. for 0.5 hr. Then the blocking buffer was discarded, and 50 μl of 10 μg/ml purified antibody to be tested was added to the first test well. 3-fold serial dilutions were made, and a total of 11 test concentration gradients were given. […] The plate was washed 3 times with PBST, and incubated with 100 μl/well of Streptavidin-HRP (SA-HRP, GenScript) at 37° C. for 10 min. Finally, the plate was washed 5 times with PBST, and then a TMB developing solution (GenScript) was added and incubated at room temperature for 15 min in the dark. The reaction was terminated by adding 50 μl of 1M HCl stop solution (Sigma). The plate was read at 450 nm on a microplate reader.

[9] = biological target: T2, human PD-L1 protein; experiment: ELISA on human PD-L1 protein; antibody kept at 40 C for 0 (D0), 7 (D7) or 14 (D14) days
Experimental: as §1

[10] = biological target: T4, biotin-labeled PD-L1-Fc; experiment: ELISA: biotin-PD-L1-Fc binding to coated human PD-1 with titrated antibody, OD 450 nm, fitted curve; enhancement
Experimental: as §3

[11] = biological target: T4, biotin-labeled PD-L1-Fc; experiment: flow cytometry: biotin-PD-L1-Fc binding to CHO cells expressing human PD-1 with titrated antibody, fitted curve; enhancement
Experimental: (§4) In the FACS test, CHO cells expressing human PD-1 and parent cells as a negative control were washed 3 times with PBS. 2.5×10⁵ detection cells and 50 μl of 3-fold serial dilutions of purified antibody with an initial concentration of 300 nM were added to a 96-well plate. […] Then the cells were washed 3 times with PBS, 100 μl of iFluor647-labeled streptavidin (1 μg/ml) was added, and the cells were incubated at 4° C. for 45 min. Finally, the cells were washed 3 times with PBS, and the signal was read on FACS BD Calibur.

[12] = biological target: T5, monkey PD-L1 on cell surface (monkey); experiment: flow cytometry on CHO cells expressing monkey PD-L1, fitted curve
T5 construct: whole, on cells; also called monkey PD-L1 cell line; CHO cells overexpressing monkey PD-L1
Experimental: (§5) CHO cells expressing human or monkey PD-L1 and parent cells as a negative control were washed 3 times with PBS. 2.5×10⁵ detection cells and 100 μl of 3-fold serial dilutions of purified antibody with an initial concentration of 300 nM were added to a 96-well plate and incubated at 4° C. for 1 hr. […] Finally, the cells were washed 3 times with PBS, and the signal was read on FACS BD Calibur.
Moreover, CHO cells overexpressing monkey PD-L1 were used to test the cross-recognition binding to monkey PD-L1 by the antibodies.

[13] = biological target: T1, human PD-L1 on cell surface; experiment: flow cytometry on CHO cells expressing human PD-L1, fitted curve
Experimental: as §5

[14] = biological target: T4, biotin-labeled PD-L1-Fc; experiment: flow cytometry: biotin-PD-L1-Fc binding to CHO cells expressing human PD-1 with titrated antibody; enhancement of PD-L1/PD-1 binding
Experimental: as §4

[15] = biological target: T2, human PD-L1 protein; experiment: ELISA on human PD-L1 protein; antibody treated for 20 min at room temperature to 70 C and -80 C control (curves not told apart)
Experimental: as §2

[16] = biological target: T2, human PD-L1 protein; experiment: ELISA on the antigen (human PD-L1); antibody untreated (0), after oxidative stress (AAPH, 24 h) or deamidation stress (pH 9.0, 48 h); remark: listed apart in the source
[17] = biological target: T2, human PD-L1 protein; experiment: ELISA on the antigen (human PD-L1); antibody untreated (0), after oxidative stress (AAPH, 24 h) or deamidation stress (pH 9.0, 48 h); curves not told apart

T2 sequence (Q9NZQ7 19-238 limits assumed): as above
T1 sequence (Q9NZQ7 19-290): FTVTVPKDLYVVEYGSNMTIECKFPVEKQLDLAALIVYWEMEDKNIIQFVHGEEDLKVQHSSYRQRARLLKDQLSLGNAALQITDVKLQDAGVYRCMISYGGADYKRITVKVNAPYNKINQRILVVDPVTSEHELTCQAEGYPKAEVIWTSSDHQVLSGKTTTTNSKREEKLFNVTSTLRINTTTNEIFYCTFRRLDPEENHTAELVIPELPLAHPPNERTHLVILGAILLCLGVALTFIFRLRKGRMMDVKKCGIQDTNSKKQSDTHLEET

Bottom (best-fit value) of IL-2 release, mixed lymphocyte reaction [1]	EC50 (µg/ml) of IL-2 release, mixed lymphocyte reaction [1]	LogEC50 (best-fit value) of IL-2 release, mixed lymphocyte reaction [1]	Span (best-fit value) of IL-2 release, mixed lymphocyte reaction [1]	Top (best-fit value) of IL-2 release, mixed lymphocyte reaction [1]	EC50 (read off the curve) [2]	EC50 (read off the curve) [3]	Kd [5]	koff [5]	kon [5]	EC50 (read off the curve) [15]	Binder	other results
1140	0.0311 µg/mL	-1.51	950	2090	~10 ng/mL	~20 ng/mL	0.82 nM	0.000152 s⁻¹	185000 M⁻¹ s⁻¹	–	AH01950 (antibody, human IgG1, V domains shown, also called mPD-L1Ab-CBM clone AH01950) VH: QVQLQESGPGLVKPSQTLSLTCTVSGYSITSGYTWHWIRQHPGKGLEWIGYIHYSGSTKYNPSLKSRVTISRDTSKNQFSLKLSSVTAADTAVYYCARNSLFASWGQGTLVTVSS VL: DIVLTQSPDSLAVSLGERATINCRASESVDTYGDSFMHWFQQKPGQPPKLLIYRASNLESGVPDRFSGSGSGTDFTLTISSLQAEDVAVYYCQQSNEAPYTFGGGTKLEIK	EC50 (read off the curve) [4]: ~10 ng/mL; EC50 (read off the curve) [6]: ~10 ng/mL; EC50 (read off the curve) [7]: ~30 ng/mL
1170	0.0295 µg/mL	-1.53	866	2030	–	–	0.835 nM	0.000155 s⁻¹	186000 M⁻¹ s⁻¹	~10 ng/mL	AH01946 (antibody, human IgG1, V domains shown, also called mPD-L1Ab-CBM clone AH01946) VH: QVQLQESGPGLVKPSQTLSLTCTVSGYSITSGYTWHWIRQHPGKGLEWIGYIHYSGSTKYNPSLKSRVTISRDTSKNQFSLKLSSMTAADTAVYYCARNSLFASWGQGTLVTVSS VL: DIVLTQSPDSLAVSLGERATINCRASESVDTYGDSFMHWFQQKPGQPPKLLIYRASNLESGVPDRFSGSGSGTDFTLTISSVQAEDVAVYYCQQSNEAPYTFGGGTKLEIK	EC50 [8]: 0.0219 µg/mL; EC50 (read off the curve) [9]: ~10 ng/mL; LogEC50 [10]: 1.34; LogEC50 [11]: 1.45; EC50 [12]: 3.29 nM; LogEC50 [12]: 0.518; EC50 [13]: 0.501 nM; LogEC50 [13]: -0.3; EC50 [14]: 28.1 nM; EC50 (read off the curve) [16]: ~10 ng/mL
1420	0.0406 µg/mL	-1.39	930	2350	~10 ng/mL	~20 ng/mL	1.27 nM	0.000274 s⁻¹	216000 M⁻¹ s⁻¹	~10 ng/mL	AH01963 (antibody, human IgG1, V domains shown, also called mPD-L1Ab-CBM clone AH01963) VH: QVQLQESGPGLVKPSQTLSLTCTVSGYSITSGYTWHWIRQHPGKGLEWIGYIHYSGSTKYNPSLKSRVTISRDTSKNQFSLKLSSVTAADTAVYYCARNSLFASWGQGTLVTVSS VL: DIVLTQSPDSLAVSLGERATINCRASESVDTYGDSFMHWYQQKPGQPPKLLIYRASNLESGVPDRFSGSGSGTDFTLTISSVQAEDVAVYYCQQSNEAPYTFGGGTKLEIK	EC50 (read off the curve) [17]: ~20 ng/mL
